Assay results published in patent publication US20260265379A1.

Each binder was assayed against BTN3A expressed at the cell surface (human), O00481 (assay: cell-based or functional assay).
Sequence of BTN3A expressed at the cell surface (human), O00481 (O00481 30-513): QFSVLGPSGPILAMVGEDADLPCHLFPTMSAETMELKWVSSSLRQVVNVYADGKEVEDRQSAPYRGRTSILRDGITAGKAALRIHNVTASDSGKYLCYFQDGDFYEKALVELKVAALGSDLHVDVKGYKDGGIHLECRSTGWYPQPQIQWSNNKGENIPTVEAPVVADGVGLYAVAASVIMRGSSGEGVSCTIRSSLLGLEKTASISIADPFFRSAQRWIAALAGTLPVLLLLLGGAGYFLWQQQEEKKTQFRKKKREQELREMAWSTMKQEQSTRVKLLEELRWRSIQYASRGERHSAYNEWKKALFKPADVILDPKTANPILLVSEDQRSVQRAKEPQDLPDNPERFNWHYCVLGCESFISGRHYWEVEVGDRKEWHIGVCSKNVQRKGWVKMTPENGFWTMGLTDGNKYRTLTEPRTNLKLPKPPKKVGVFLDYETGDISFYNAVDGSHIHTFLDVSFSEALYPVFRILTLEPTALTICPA

| Binder | Jurkat-Vy9Vo2 TCR MOP activation at 0.5 nM (fold-change to medium) | Jurkat-Vy9Vo2 TCR MOP activation at 5 nM (fold-change to medium) | dose at which Jurkat-Vγ9Vδ2 TCR MOP activation was evident [nM] | increase in CD107ab expression on Vγ9Vδ2 T cells co-cultured with SKOV3 cells, 0.1 nM [fold] |
| --- | --- | --- | --- | --- |
| bsAb010 (bispecific antibody) heavy: QVQLVQSGAEVKKPGASVKLSCKASGYIFTRYYMYWVKQRPGQGLEWIGEINPNNGGTKFNEKFKNRATLTVDKSISTAYMELSRLRSDDTAVYYCSREDDYDGTPFAMDYWGQGTLVTVSSASTKGPSVFPLAPSSKSTSGGTAALGCLVKDYFPEPVTVSWNSGALTSGVHTFPAVLQSSGLYSLSSVVTVPSSSLGTQTYICNVNHKPSNTKVDKRVEPKSCDKTHTCPPCPAPEFEGGPSVFLFPPKPKDTLMISRTPEVTCVVVDVSHEDPEVKFNWYVDGVEVHNAKTKPREEQYNSTYRVVSVLTVLHQDWLNGKEYKCKVSNKALPASIEKTISKAKGQPREPQVYTLPPSREEMTKNQVSLTCLVKGFYPSDIAVEWESNGQPENNYKTTPPVLDSDGSFFLYSKLTVDKSRWQQGNVFSCSVMHEALHNHYTQKSLSLSPG light: not shown | 5.3 | 4.8 | – | – |
| bsAb014 (bispecific antibody) heavy: QVQLVQSGAEVKKPGASVKLSCKASGYIFTRYYMYWVKQRPGQGLEWIGEINPNNGGTKFNEKFKNRATLTVDKSISTAYMELSRLRSDDTAVYYCSREDDYDGTPFAMDYWGQGTLVTVSSASTKGPSVFPLAPSSKSTSGGTAALGCLVKDYFPEPVTVSWNSGALTSGVHTFPAVLQSSGLYSLSSVVTVPSSSLGTQTYICNVNHKPSNTKVDKRVEPKSCDKTHTCPPCPAPEFEGGPSVFLFPPKPKDTLMISRTPEVTCVVVDVSHEDPEVKFNWYVDGVEVHNAKTKPREEQYNSTYRVVSVLTVLHQDWLNGKEYKCKVSNKALPASIEKTISKAKGQPREPQVYTLPPSREEMTKNQVSLTCLVKGFYPSDIAVEWESNGQPENNYKTTPPVLDSDGSFFLYSKLTVDKSRWQQGNVFSCSVMHEALHNHYTQKSLSLSPG light: not shown | 6.4 | 4.6 | – | – |
| bsAb036 (bispecific antibody, not shown: small tags and cut ends; a dimerising Fc or GST) heavy (part 1 of 2): EVQLVESGGGLVQPGGSLRLSCAASGFTFSRYWMSWVRQAPGKGLEWVANIKQDGSEKYYVDSVKGRFTISRDNAKNSLYLQMNSLRAEDTAVYYCAREGGWFGELAFDYWGQGTLVTVSS heavy (part 2 of 2): GGGGSGGGGSGGGGSGGGGSQVQLVQSGAEVKKPGASVKLSCKASGYIFTRYYMYWVKQRPGQGLEWIGEINPNNGGTKFNEKFKNRATLTVDKSISTAYMELSRLRSDDTAVYYCSREDDYDGTPFAMDYWGQGTLVTVSSGGGGSGGGGSGGGGSGGGGSDIQMTQSPSSLSASVGDRVTITCHASQNINVWLSWYQQKPGKAPKLLIYKASNLHTGVPSRFTGSGSGTDFTFTISSLQPEDIATYYCQQGQTYPYTFGQGTKLEIK heavy: GGGGSGGGGSGGGGSGGGGSQVQLVQSGAEVKKPGASVKLSCKASGYIFTRYYMYWVKQRPGQGLEWIGEINPNNGGTKFNEKFKNRATLTVDKSISTAYMELSRLRSDDTAVYYCSREDDYDGTPFAMDYWGQGTLVTVSSGGGGSGGGGSGGGGSGGGGSDIQMTQSPSSLSASVGDRVTITCHASQNINVWLSWYQQKPGKAPKLLIYKASNLHTGVPSRFTGSGSGTDFTFTISSLQPEDIATYYCQQGQTYPYTFGQGTKLEIK light: EIVLTQSPGTLSLSPGERATLSCRASQRVSSSYLAWYQQKPGQAPRLLIYDASSRATGIPDRFSGSGSGTDFTLTISRLEPEDFAVYYCQQYGSLPWTFGQGTKVEIKRTVAAPSVFIFPPSDEQLKSGTASVVCLLNNFYPREAKVQWKVDNALQSGNSQESVTEQDSKDSTYSLSSTLTLSKADYEKHKVYACEVTHQGLSSPVTKSFNRGEC | 0.9 | 0.9 | – | – |
| bsAb041 (bispecific antibody, not shown: small tags and cut ends; a dimerising Fc or GST) heavy (part 1 of 2): EVQLVESGGGLVQPGGSLRLSCAASGFTFSRYWMSWVRQAPGKGLEWVANIKQDGSEKYYVDSVKGRFTISRDNAKNSLYLQMNSLRAEDTAVYYCAREGGWFGELAFDYWGQGTLVTVSS heavy (part 2 of 2): GGGGSGGGGSGGGGSGGGGSDIQMTQSPSSLSASVGDRVTITCHASQNINVWLSWYQQKPGKAPKLLIYKASNLHTGVPSRFTGSGSGTDFTFTISSLQPEDIATYYCQQGQTYPYTFGQGTKLEIKGGGGSGGGGSGGGGSGGGGSQVQLVQSGAEVKKPGASVKLSCKASGYIFTRYYMYWVKQRPGQGLEWIGEINPNNGGTKFNEKFKNRATLTVDKSISTAYMELSRLRSDDTAVYYCSREDDYDGTPFAMDYWGQGTLVTVSS heavy: GGGGSGGGGSGGGGSGGGGSDIQMTQSPSSLSASVGDRVTITCHASQNINVWLSWYQQKPGKAPKLLIYKASNLHTGVPSRFTGSGSGTDFTFTISSLQPEDIATYYCQQGQTYPYTFGQGTKLEIKGGGGSGGGGSGGGGSGGGGSQVQLVQSGAEVKKPGASVKLSCKASGYIFTRYYMYWVKQRPGQGLEWIGEINPNNGGTKFNEKFKNRATLTVDKSISTAYMELSRLRSDDTAVYYCSREDDYDGTPFAMDYWGQGTLVTVSS light: EIVLTQSPGTLSLSPGERATLSCRASQRVSSSYLAWYQQKPGQAPRLLIYDASSRATGIPDRFSGSGSGTDFTLTISRLEPEDFAVYYCQQYGSLPWTFGQGTKVEIKRTVAAPSVFIFPPSDEQLKSGTASVVCLLNNFYPREAKVQWKVDNALQSGNSQESVTEQDSKDSTYSLSSTLTLSKADYEKHKVYACEVTHQGLSSPVTKSFNRGEC | 0.9 | 1 | – | – |
| bsAb069 (bispecific antibody, not shown: small tags and cut ends; a dimerising Fc or GST) heavy 1: EVQLVESGGGLVQPGGSLRLSCAASGFTFSRYWMSWVRQAPGKGLEWVANIKQDGSEKYYVDSVKGRFTISRDNAKNSLYLQMNSLRAEDTAVYYCAREGGWFGELAFDYWGQGTLVTVSS heavy 2: DIQMTQSPSSLSASVGDRVTITCHASQNINVWLSWYQQKPGKAPKLLIYKASNLHTGVPSRFTGSGSGTDFTFTISSLQPEDIATYYCQQGQTYPYTFGQGTKLEIKGGGGSGGGGSGGGGSGGGGSQVQLVQSGAEVKKPGASVKLSCKASGYIFTRYYMYWVKQRPGQGLEWIGEINPNNGGTKFNEKFKNRATLTVDKSISTAYMELSRLRSDDTAVYYCSREDDYDGTPFAMDYWGQGTLVTVSSGGGGSGGGGSGGGGSGGGGS light: EIVLTQSPGTLSLSPGERATLSCRASQRVSSSYLAWYQQKPGQAPRLLIYDASSRATGIPDRFSGSGSGTDFTLTISRLEPEDFAVYYCQQYGSLPWTFGQGTKVEIKRTVAAPSVFIFPPSDEQLKSGTASVVCLLNNFYPREAKVQWKVDNALQSGNSQESVTEQDSKDSTYSLSSTLTLSKADYEKHKVYACEVTHQGLSSPVTKSFNRGECGGGGSGGGGSGGGGSGGGGSQVQLVQSGAEVKKPGASVKLSCKASGYIFTRYYMYWVKQRPGQGLEWIGEINPNNGGTKFNEKFKNRATLTVDKSISTAYMELSRLRSDDTAVYYCSREDDYDGTPFAMDYWGQGTLVTVSSGGGGSGGGGSGGGGSGGGGSDIQMTQSPSSLSASVGDRVTITCHASQNINVWLSWYQQKPGKAPKLLIYKASNLHTGVPSRFTGSGSGTDFTFTISSLQPEDIATYYCQQGQTYPYTFGQGTKLEIK | 2.4 | 3.8 | – | – |
| bsAb054 (bispecific antibody, not shown: small tags and cut ends) heavy (part 1 of 2): EVQLVESGGGLVQPGGSLRLSCAASGFTFSRYWMSWVRQAPGKGLEWVANIKQDGSEKYYVDSVKGRFTISRDNAKNSLYLQMNSLRAEDTAVYYCAREGGWFGELAFDYWGQGTLVTVSS heavy (part 2 of 2): GGGGSGGGGSGGGGSGGGGSQVQLVQSGAEVKKPGASVKLSCKASGYIFTRYYMYWVKQRPGQGLEWIGEINPNNGGTKFNEKFKNRATLTVDKSISTAYMELSRLRSDDTAVYYCSREDDYDGTPFAMDYWGQGTLVTVSSGGGGSGGGGSGGGGSGGGGSDIQMTQSPSSLSASVGDRVTITCHASQNINVWLSWYQQKPGKAPKLLIYKASNLHTGVPSRFTGSGSGTDFTFTISSLQPEDIATYYCQQGQTYPYTFGQGTKLEIK heavy: EVQLVESGGGLVQPGGSLRLSCAASGFTFSRYWMSWVRQAPGKGLEWVANIKQDGSEKYYVDSVKGRFTISRDNAKNSLYLQMNSLRAEDTAVYYCAREGGWFGELAFDYWGQGTLVTVSS light: EIVLTQSPGTLSLSPGERATLSCRASQRVSSSYLAWYQQKPGQAPRLLIYDASSRATGIPDRFSGSGSGTDFTLTISRLEPEDFAVYYCQQYGSLPWTFGQGTKVEIKRTVAAPSVFIFPPSDEQLKSGTASVVCLLNNFYPREAKVQWKVDNALQSGNSQESVTEQDSKDSTYSLSSTLTLSKADYEKHKVYACEVTHQGLSSPVTKSFNRGEC | 2.8 | 1 | – | – |
| bsAb070 (bispecific antibody, not shown: small tags and cut ends; a dimerising Fc or GST) heavy 1: EVQLVESGGGLVQPGGSLRLSCAASGFTFSRYWMSWVRQAPGKGLEWVANIKQDGSEKYYVDSVKGRFTISRDNAKNSLYLQMNSLRAEDTAVYYCAREGGWFGELAFDYWGQGTLVTVSS heavy 2: QVQLVQSGAEVKKPGASVKLSCKASGYIFTRYYMYWVKQRPGQGLEWIGEINPNNGGTKFNEKFKNRATLTVDKSISTAYMELSRLRSDDTAVYYCSREDDYDGTPFAMDYWGQGTLVTVSSGGGGSGGGGSGGGGSGGGGSDIQMTQSPSSLSASVGDRVTITCHASQNINVWLSWYQQKPGKAPKLLIYKASNLHTGVPSRFTGSGSGTDFTFTISSLQPEDIATYYCQQGQTYPYTFGQGTKLEIKGGGGSGGGGSGGGGSGGGGS light: EIVLTQSPGTLSLSPGERATLSCRASQRVSSSYLAWYQQKPGQAPRLLIYDASSRATGIPDRFSGSGSGTDFTLTISRLEPEDFAVYYCQQYGSLPWTFGQGTKVEIKRTVAAPSVFIFPPSDEQLKSGTASVVCLLNNFYPREAKVQWKVDNALQSGNSQESVTEQDSKDSTYSLSSTLTLSKADYEKHKVYACEVTHQGLSSPVTKSFNRGECGGGGSGGGGSGGGGSGGGGSDIQMTQSPSSLSASVGDRVTITCHASQNINVWLSWYQQKPGKAPKLLIYKASNLHTGVPSRFTGSGSGTDFTFTISSLQPEDIATYYCQQGQTYPYTFGQGTKLEIKGGGGSGGGGSGGGGSGGGGSQVQLVQSGAEVKKPGASVKLSCKASGYIFTRYYMYWVKQRPGQGLEWIGEINPNNGGTKFNEKFKNRATLTVDKSISTAYMELSRLRSDDTAVYYCSREDDYDGTPFAMDYWGQGTLVTVSS | 1.5 | 1.3 | – | – |
| ICT01 (antibody, V domains shown) VH: QVQLVQSGAEVKKPGASVKLSCKASGYIFTRYYMYWVKQRPGQGLEWIGEINPNNGGTKFNEKFKNRATLTVDKSISTAYMELSRLRSDDTAVYYCSREDDYDGTPFAMDYWGQGTLVTVSS VL: DIQMTQSPSSLSASVGDRVTITCHASQNINVWLSWYQQKPGKAPKLLIYKASNLHTGVPSRFTGSGSGTDFTFTISSLQPEDIATYYCQQGQTYPYTFGQGTKLEIK | 12.5 | 11.7 | 0.05 | 1.9 |
